Assay results from the Human Domainome abundance scans (Beltran et al. 2025).
± gives the uncertainty stated by the source.

B1: Pyruvate dehydrogenase protein X component, mitochondrial, residues 181 to 227; numbered along this chain, O00330 (parent)
chain: RFRLSPAARNILEKHSLDASQGTATGPRGIFTKEDALKLVQLKQTGK
B2: Chromodomain-helicase-DNA-binding protein 5, residues 411 to 463; numbered along this chain, Q8TDI0 (parent)
chain: EEDDHMEFCRVCKDGGELLCCDACPSSYHLHCLNPPLPEIPNGEWLCPRCTCP

Variants of: B1
Experiment: abundance fitness (aPCA) (normalised: wild type 0, dead -1); higher = more abundant; growth selection in yeast, the domain comes from the species named
Settings: Homo sapiens
For RFRLSPAARNILEKHSLWASQGTATGPRGIFTKEDALKLVQLKQTGK, the abundance fitness was -1.06 ± 0.14. In the case of RFRLSPAACNILEKHSLDASQGTATGPRGIFTKEDALKLVQLKQTGK, the abundance fitness is reported as -0.924 ± 0.12. RFRLSPAARNILEKHSLDASQGTATVPRGIFTKEDALKLVQLKQTGK gave an abundance fitness of -0.489 ± 0.043. Variant RFRLSPAARNILEKHSLDASQGTAFGPRGIFTKEDALKLVQLKQTGK has an abundance fitness of -0.697 ± 0.082. Variant RFRLSPAARNILEKHSLDASQGTALGPRGIFTKEDALKLVQLKQTGK has an abundance fitness of -0.519 ± 0.048. In the case of RFRLSPAARNILEKHSLDASQGTAGGPRGIFTKEDALKLVQLKQTGK, the abundance fitness is reported as -0.445 ± 0.046. In the case of RFRLSPAARNILEKHSLDASQGPATGPRGIFTKEDALKLVQLKQTGK, the abundance fitness is reported as -0.442 ± 0.064. RFRLSPAARNILEKHSNDASQGTATGPRGIFTKEDALKLVQLKQTGK gave an abundance fitness of -0.687 ± 0.066. RFRLSPAARNILEKHSLDASQGTATGPRGIFTKEVALKLVQLKQTGK gave an abundance fitness of -1 ± 0.1. Work on RFRLSPAARNILEKHSLDASQGTATGWRGIFTKEDALKLVQLKQTGK yielded an abundance fitness of -0.682 ± 0.079. In the case of RFRLSPAARNILEKHSLDASQGTATGCRGIFTKEDALKLVQLKQTGK, the abundance fitness is reported as -0.323 ± 0.067. Variant RFRLSPAARNILEKHSLDASQGTATGPRGIFTKEDALKLVQLKQTIK has an abundance fitness of -0.689 ± 0.2. In the case of RFRLSPAARNILEKHSLDASQGTATGPRGIFTKEDALKLPQLKQTGK, the abundance fitness is reported as -0.314 ± 0.12. With RFRLSPAARNILEKHSLDASQGTATGPRGIFTKLDALKLVQLKQTGK the abundance fitness was -0.443 ± 0.061. Work on RFRLSPAARNILEKHMLDASQGTATGPRGIFTKEDALKLVQLKQTGK yielded an abundance fitness of -0.708 ± 0.089. Work on RFRLSIAARNILEKHSLDASQGTATGPRGIFTKEDALKLVQLKQTGK yielded an abundance fitness of -0.113 ± 0.046. RFRLSPAARNILEKHSLDASQGTATGPYGIFTKEDALKLVQLKQTGK showed an abundance fitness of -0.03 ± 0.064. RFRLSPAARNHLEKHSLDASQGTATGPRGIFTKEDALKLVQLKQTGK showed an abundance fitness of -0.369 ± 0.11. Work on RFRLSPAARNGLEKHSLDASQGTATGPRGIFTKEDALKLVQLKQTGK yielded an abundance fitness of -0.409 ± 0.055.

Variants of: B2
Experiment: as above
Settings: Homo sapiens
C32W showed an abundance fitness of -0.967 ± 0.13. With C32F the abundance fitness was -0.758 ± 0.21. Variant C32N has an abundance fitness of -0.395 ± 0.13. C32L gave an abundance fitness of -0.716 ± 0.097. Variant C32Y has an abundance fitness of -0.846 ± 0.18. For H5F, the abundance fitness was 0.067 ± 0.053. For H5R, the abundance fitness was -0.089 ± 0.041. H5K showed an abundance fitness of 0.023 ± 0.042. In the case of H5A, the abundance fitness is reported as -0.26 ± 0.042. Work on H5S yielded an abundance fitness of -0.197 ± 0.047. In the case of H5D, the abundance fitness is reported as -0.177 ± 0.076. G16C gave an abundance fitness of -0.183 ± 0.21. In the case of G16R, the abundance fitness is reported as -0.518 ± 0.14. G16D gave an abundance fitness of -0.003 ± 0.14. L46W showed an abundance fitness of -0.155 ± 0.083. L46D gave an abundance fitness of -0.65 ± 0.19. For L46H, the abundance fitness was -0.152 ± 0.11. Variant L46M has an abundance fitness of -0.188 ± 0.082. With L46P the abundance fitness was -0.559 ± 0.12. In the case of L46R, the abundance fitness is reported as -0.034 ± 0.06. For L46E, the abundance fitness was -0.025 ± 0.054. Work on L46Y yielded an abundance fitness of -0.115 ± 0.093. With L46G the abundance fitness was -0.502 ± 0.081. In the case of L46C, the abundance fitness is reported as 0.088 ± 0.096. In the case of L46I, the abundance fitness is reported as 0.116 ± 0.093. S26R showed an abundance fitness of -0.106 ± 0.078. S26C showed an abundance fitness of -0.107 ± 0.054. Variant S26K has an abundance fitness of -0.062 ± 0.09. Variant S26A has an abundance fitness of 0.044 ± 0.054. Variant C52I has an abundance fitness of -0.239 ± 0.099. C52R showed an abundance fitness of -0.026 ± 0.045. With P35F the abundance fitness was -0.24 ± 0.049. With P35Q the abundance fitness was -0.12 ± 0.063. P35G showed an abundance fitness of -0.182 ± 0.046. With P35C the abundance fitness was -0.371 ± 0.078. Variant P35E has an abundance fitness of 0.034 ± 0.079. Work on P35H yielded an abundance fitness of -0.353 ± 0.1. Variant W45T has an abundance fitness of -0.7 ± 0.082. Variant W45F has an abundance fitness of -0.593 ± 0.2. W45P showed an abundance fitness of -0.472 ± 0.067. W45S showed an abundance fitness of -0.459 ± 0.071. With W45Y the abundance fitness was -0.299 ± 0.1. Work on W45E yielded an abundance fitness of -0.523 ± 0.083. K13D showed an abundance fitness of 0.01 ± 0.051. K13A gave an abundance fitness of 0.015 ± 0.064. With K13W the abundance fitness was -0.299 ± 0.059. E1R gave an abundance fitness of -0.554 ± 0.16. Work on E1C yielded an abundance fitness of -0.893 ± 0.47. E1I showed an abundance fitness of 0.425 ± 0.27. Variant E1N has an abundance fitness of 0.264 ± 0.15. P36Y showed an abundance fitness of -0.838 ± 0.22. P36C showed an abundance fitness of -0.084 ± 0.088. Work on P36Q yielded an abundance fitness of 0.089 ± 0.1. P36A showed an abundance fitness of 0.099 ± 0.08. With G43H the abundance fitness was -0.148 ± 0.1. G43Q showed an abundance fitness of 0.039 ± 0.12. With G43I the abundance fitness was -0.392 ± 0.14. With G43V the abundance fitness was 0.004 ± 0.066. In the case of G43A, the abundance fitness is reported as 0.047 ± 0.076. With G43L the abundance fitness was -0.152 ± 0.068. With H31L the abundance fitness was -0.246 ± 0.086. H31R gave an abundance fitness of 0.05 ± 0.049. Variant H31P has an abundance fitness of -0.406 ± 0.13. Variant T51Y has an abundance fitness of -0.161 ± 0.097. In the case of T51G, the abundance fitness is reported as -0.052 ± 0.063. For T51K, the abundance fitness was 0.049 ± 0.089. In the case of C47H, the abundance fitness is reported as -0.235 ± 0.2. C47T gave an abundance fitness of -0.551 ± 0.12. Variant C47K has an abundance fitness of -0.848 ± 0.21. C47R gave an abundance fitness of -0.737 ± 0.058. In the case of C47N, the abundance fitness is reported as -0.285 ± 0.17. C47S gave an abundance fitness of -0.653 ± 0.048. In the case of C47V, the abundance fitness is reported as -0.808 ± 0.084. With C47Y the abundance fitness was -0.929 ± 0.11. Work on C47W yielded an abundance fitness of -0.914 ± 0.067. V11D showed an abundance fitness of 0.062 ± 0.081. For V11L, the abundance fitness was -0.1 ± 0.053. Work on V11G yielded an abundance fitness of 0.046 ± 0.053. D22Y gave an abundance fitness of -0.059 ± 0.044. With D22Q the abundance fitness was 0.099 ± 0.048. In the case of D22I, the abundance fitness is reported as -0.04 ± 0.068. Variant D22M has an abundance fitness of 0.051 ± 0.066. Variant D22N has an abundance fitness of 0.093 ± 0.053. With D22C the abundance fitness was -0.046 ± 0.08. Variant P41W has an abundance fitness of -0.393 ± 0.11. With P41Y the abundance fitness was -0.043 ± 0.2. With P41T the abundance fitness was 0.002 ± 0.073. Work on P41L yielded an abundance fitness of -0.019 ± 0.059. Variant L30R has an abundance fitness of -0.018 ± 0.049. Work on L30C yielded an abundance fitness of -0.038 ± 0.063. L30M gave an abundance fitness of 0.137 ± 0.062. L30S showed an abundance fitness of 0.02 ± 0.055. E2V gave an abundance fitness of -0.125 ± 0.081. Work on E2A yielded an abundance fitness of -0.194 ± 0.091. In the case of C20D, the abundance fitness is reported as 0.217 ± 0.08. In the case of C20Q, the abundance fitness is reported as 0.031 ± 0.047. Work on C20K yielded an abundance fitness of 0.01 ± 0.083. In the case of C20H, the abundance fitness is reported as -0.065 ± 0.094. Variant C20A has an abundance fitness of 0.071 ± 0.066. Work on C20L yielded an abundance fitness of 0.006 ± 0.047. Work on C20G yielded an abundance fitness of 0.116 ± 0.052. Variant E39H has an abundance fitness of 0.098 ± 0.17. E39L gave an abundance fitness of -0.418 ± 0.13. E39W showed an abundance fitness of -0.617 ± 0.24. With E39R the abundance fitness was -0.301 ± 0.088. Variant E39K has an abundance fitness of -0.104 ± 0.12. For E39N, the abundance fitness was 0.116 ± 0.18. Variant E39T has an abundance fitness of -0.209 ± 0.14. S27Q gave an abundance fitness of -0.064 ± 0.068. For S27I, the abundance fitness was -0.345 ± 0.12. With S27M the abundance fitness was -0.052 ± 0.078. Variant S27L has an abundance fitness of -0.039 ± 0.054. Variant S27P has an abundance fitness of -0.47 ± 0.064. Variant S27H has an abundance fitness of 0.026 ± 0.064. In the case of P53A, the abundance fitness is reported as -0.091 ± 0.14. Work on P53T yielded an abundance fitness of -0.083 ± 0.16. Work on P53S yielded an abundance fitness of -0.153 ± 0.13. With P53G the abundance fitness was -0.097 ± 0.06. Work on D14N yielded an abundance fitness of -0.061 ± 0.048. In the case of D14V, the abundance fitness is reported as -0.157 ± 0.12. Variant D14C has an abundance fitness of -0.291 ± 0.083. D14Y gave an abundance fitness of -0.452 ± 0.15. Variant D14H has an abundance fitness of -0.037 ± 0.11. With D14G the abundance fitness was 0.086 ± 0.085. With D14S the abundance fitness was -0.17 ± 0.073. Variant D14M has an abundance fitness of -0.051 ± 0.09. In the case of C9T, the abundance fitness is reported as -0.56 ± 0.074. For C9Y, the abundance fitness was -0.977 ± 0.068.
